Source: US20080226630A1 (SYMPHOGEN A S, published 2008)
Residue numbers refer to the chain shown, from its start.

T1: recombinant human fractalkine (CX3CL1; R&D systems) (human, UniProt P78423 25-100)
T1 sequence (looked up): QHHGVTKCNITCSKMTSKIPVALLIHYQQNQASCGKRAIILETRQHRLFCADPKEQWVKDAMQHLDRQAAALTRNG

T2: recombinant RSV protein G, G(B): residues 66-292 of strain 18537 (human respiratory syncytial virus …, UniProt P20896 66-292)
T2 construct: also called soluble recombinant G protein; recombinant protein G
T2 sequence: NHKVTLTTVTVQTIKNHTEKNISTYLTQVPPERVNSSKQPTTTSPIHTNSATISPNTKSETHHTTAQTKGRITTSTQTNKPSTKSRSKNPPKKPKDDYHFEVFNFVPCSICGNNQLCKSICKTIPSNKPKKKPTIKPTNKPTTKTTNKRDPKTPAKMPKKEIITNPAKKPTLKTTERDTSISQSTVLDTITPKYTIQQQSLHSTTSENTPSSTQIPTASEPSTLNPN

B1: Fab fragment of antibody 819 (Fab, V domains shown)
VH: QVQLQESGPGLVKPSQTLSLTCTVSSGAISGADYYWSWIRQPPGKGLEWVGFIYDSGSTYYNPSLRSRVTISIDTSKKQFSLKLTSVTAADTAVYYCARDLGYGGNSYSHSYYYGLDVWGRGTTVTVSS
VL: EIVLTQSPATLSLSPGERATLSCRASQSVSSSLAWYQQTPGQAPRLLIYDASYRVTGIPARFSGSGSGIDFTLTISSLEPEDFAVYYCQQRSNWPPGLTFGGGTKVEIKR
B2: Fab fragment of antibody 735 (Fab, V domains shown)
VH: QVQLQESGPGLVKPSETLSLTCTVSNGAIGDYDWSWIRQSPGKGLEWIGNINYRGNTNYNPSLKSRVTMSLRTSTMQFSLKLSSATAADTAVYYCARDVGYGGGQYFAMDVWSPGTTVTVSS
VL: EIVLTQSPATLSLSPGERATLSCRASQSVNSHLAWYQQKPGQAPRLLIYNTFNRVTGIPARFSGSGSGTDFTLTISSLATEDFGVYYCQQRSNWPPALTFGGGTKVEIKR
notes: also called Fab clone 735
B3: Fab fragment of antibody 817 (Fab, V domains shown)
VH: QVQLVESGGGVVQPGRSLRLSCAASGFGFNTHGMHWVRQAPGKGLEWLSIISLDGIKTHYADSVKGRFTISRDNSKNTVFLQLSGLRPEDTAVYYCAKDHIGGTNAYFEWTVPFDGWGQGTLVTVSS
VL: EIVMTQSPATLSASPGERATLSCWASQTIGGNLAWYQQKPGQAPRLLIYGASTRATGVPARFSGSGSGTEFTLAISSLQSEDFAVYYCQQYKNWYTFGQGTKLELKR
notes: also called Fab clone 817
B4: Fab fragment of antibody 831 (Fab, V domains shown)
VH: QVQLVQSGAEVKKPGASVKVSCKASANIFTYAMHWVRQAPGQRLEWMGWINVGNGQTKYSQRFQGRVTITRDTSATTAYMELSTLRSEDTAVYYCARRASQYGEVYGNYFDYWGQGTLVTVSS
VL: DIQMTQSPSTLSASVGDRLTITCRASQNIYNWLAWYQQKPGKAPKLLIYDASTLESGVPSRFSGSGSGTEFTLTISSLQPDDFATYYCQQYNSLSPTFGQGTKVEIKR
notes: also called Fab clone 831
B5: Fab fragment of antibody 825 (Fab, V domains shown)
VH: QVQLVQSGAEVKKPGASVKVSCKVSGYTFTSNGLSWVRQAPGQGFEWLGWISASSGNKKYAPKFQGRVTLTTDISTSTAYMELRSLRSDDTAVYYCAKDGGTYVPYSDAFDFWGQGTMVTVSS
VL: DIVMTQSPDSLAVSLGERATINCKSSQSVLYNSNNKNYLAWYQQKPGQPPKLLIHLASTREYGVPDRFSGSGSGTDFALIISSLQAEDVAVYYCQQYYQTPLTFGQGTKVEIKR
B6: Fab fragment of antibody 858 (Fab, V domains shown)
VH: QVQLVQSGAEVKKPGSSVKVSCKASGGSFDGYTISWLRQAPGQGLEWMGRVVPTLGFPNYAQKFQGRVTVTADRSTNTAYLELSRLTSEDTAVYYCARMNLGSHSGRPGFDMWGQGTLVTVSS
VL: DIQMTQSPSSVSASVGDRVTITCQASQDISNYLNWYQQKPGKAPKLLIFDATKLETGVPTRFIGSGSGTDFTVTITSLQPEDVATYYCQHFANLPYTFGQGTKLEIKR
notes: also called Fab clone 858
B7: Fab fragment of antibody 818 (Fab, V domains shown)
VH: QVTLRESGPAVVKPTETLTLTCAFSGFSLNAGRVGVSWIRQPPGQAPEWLARIDWDDDKAFRTSLKTRLSISKDSSKNQVVLTLSNMDPADTATYYCARTQVFASGGYYLYYLDHWGQGTLVTVSS
VL: DIQMTQSPSSLSASVGDRVTITCRASQTIASYVNWYQQKPGRAPSLLIYAASNLQSGVPPRFSGSGSGTDFTLTISGLQPDDFATYYCQQSYSYRALTFGGGTKVEIKR
B8: Fab fragment of antibody 810 (Fab, V domains shown)
VH: QVQLVQSGAEVKKSGSSVKVSCRASGGTFGNYAINWVRQAPGQGLEWVGRIIPVFDTTNYAQKFQGRVTITADRSTNTAIMQLSSLRPQDTAMYYCLRGSTRGWDTDGFDIWGQGTMVTVSS
VL: NIQMTQSPSAMSASVGDRVTITCRASQGISNYLVWFQQKPGKVPKRLIYAASSLQSGVPSRFSGSGSGTEFTLTISSLQPEDFATYYCLQHNISPYTFGQGTKLETKR
notes: also called Fab clone 810
B9: antibody 835 (clone 835) (antibody, human IgG1, kappa, V domains shown)
VH: QVQLVQSGAEVKRPGASVKVSCKASGYTFISYGFSWVRQAPGQGLEWMGWSSVYNGDTNYAQKFHGRVNMTTDTSTNTAYMELRGLRSDDTAVYFCARDRNVVLLPAAPFGGMDVWGQGTMVTVSS
VL: DIQLTQSPSFLSASLEDRVTITCRASQGISSYLAWYQQKPGKAPKLLLDAASTLQSGVPSRFSGSGSGTEFTLTISSLQPEDFATYYCQQLNSYPRTFGQGTKVDIKR
B10: antibody 816 (clone 816) (antibody, human IgG1, kappa, V domains shown)
VH: EVQLLESGGGLVQPGGSLRLSCVASGFTFSTYAMTWVRQAPGKGLEWVSVIRASGDSEIYADSVRGRFTISRDNSKNTVFLQMDSLRVEDTAVYFCANIGQRRYCSGDHCYGHFDYWGQGTLVTVSS
VL: DIVMTQSPLSLPVTPGEPASISCRSSQSLLHSDGRYYVDWYLQKPGQSPHLLIYLASNRASGVPDRFTGSGSGTDFTLKISRVEAEDVGVYYCMQGLHTPWTFGQGTKVDIKR
B11: antibody 841 (clone 841) (antibody, human IgG1, kappa, V domains shown)
VH: QVQLVQSGAEVKKPGASVKVSCKASGYTFISFGISWVRQAPGQGLEWMGWISAYNGNTDYAQRLQDRVTMTRDTATSTAYLELRSLKSDDTAVYYCTRDESMLRGVTEGFGPIDYWGQGTLVTVSS
VL: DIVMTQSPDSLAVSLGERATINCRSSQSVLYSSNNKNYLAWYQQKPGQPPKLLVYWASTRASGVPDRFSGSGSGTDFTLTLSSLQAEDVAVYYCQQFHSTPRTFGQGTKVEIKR
B12: Fab fragment of antibody 811 (Fab)
VH: QVQLVQSGAVVETPGASVKVSCKASGYIFGNYYIHWVRQAPGQGLEWMAVINPNGGSTTSAQKFQDRITVTRDTSTTTVYLEVDNLRSEDTATYYCARQRSVTGGFDAWLLIPDASNTWGQGTMVTVSS
light: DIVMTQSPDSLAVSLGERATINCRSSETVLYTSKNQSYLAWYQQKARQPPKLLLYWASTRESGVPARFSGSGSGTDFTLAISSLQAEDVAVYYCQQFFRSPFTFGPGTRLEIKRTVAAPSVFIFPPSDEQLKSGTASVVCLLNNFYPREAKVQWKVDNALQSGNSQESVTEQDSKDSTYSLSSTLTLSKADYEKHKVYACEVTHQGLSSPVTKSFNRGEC
notes: also called Fab clone 811
B13: Fab fragment of antibody 853 (Fab)
VH: EVQLVQSGAEVKKPGQSLKISCKTSGYIFTNYWIGWVRQRPGKGLEWMGVIFPADSDARYSPSFQGQVTISADKSIGTAYLQWSSLKASDTAIYYCARPKYYFDSSGQFSEMYYFDFWGQGTLVTVSS
light: EIVLTQSPGTLSLSPGERATLSCRASQSVSSNYLAWYQQKPGQAPRLLIYGASSRAAGMPDRFSGSGSGTDFTLTISRLEPEDFAVYYCQQYGNSPLTFGGGTEVEIKRTVAAPSVFIFPPSDEQLKSGTASVVCLLNNFYPREAKVQWKVDNALQSGNSQESVTEQDSKDSTYSLSSTLTLSKADYEKHKVYACEVTHQGLSSPVTKSFNRGEC
notes: also called Fab clone 853
B14: Fab fragment of antibody 796 (Fab)
VH: QVQLVESGGGVVQPGRSLRLSCAASGFSFSHFGMHWVRQVPGKGLEWVAIISYDGNNVHYADSVKGRFTISRDNSKNTLFLQMNSLRDDDTGVYYCAKDDVATDLAAYYYFDVWGRGTLVTVSS
light: DIVMTQTPLSLSVTPGQPASISCRSSQSLLRSDGKTFLYWYLQKPGQSPQPLMYEVSSRFSGVPDRFSGSGSGADFTLNISRVETEDVGIYYCMQGLKIRRTFGPGTKVEIKRTVAAPSVFIFPPSDEQLKSGTASVVCLLNNFYPREAKVQWKVDNALQSGNSQESVTEQDSKDSTYSLSSTLTLSKADYEKHKVYACEVTHQGLSSPVTKSFNRGEC
notes: also called Fab clone 796
B15: Fab fragment of antibody 816 (Fab)
VH: B10 VH
light: DIVMTQSPLSLPVTPGEPASISCRSSQSLLHSDGRYYVDWYLQKPGQSPHLLIYLASNRASGVPDRFTGSGSGTDFTLKISRVEAEDVGVYYCMQGLHTPWTFGQGTKVDIKRTVAAPSVFIFPPSDEQLKSGTASVVCLLNNFYPREAKVQWKVDNALQSGNSQESVTEQDSKDSTYSLSSTLTLSKADYEKHKVYACEVTHQGLSSPVTKSFNRGEC
B16: Fab fragment of antibody 838 (Fab)
VH: QVQLVESGGGVVQPGTSLRLSCAASGFTFSTFGMHWVRQAPGKGLEWVAVISYDGNKKYYADSVKGRFTISRDNSKNTLYLQVNSLRVEDTAVYYCAAQTPYFNESSGLVPDWGQGTLVTVSS
light: DIQMTQSPSSLSASVGDRVSITCRASQGISNYLAWYQQKPGKVPKLLIYAASTLQSGVPSRFSGSGSGTDFTLTISSLQPEDVATYYCQKYNSAPQTFGQGTKVEIKRTVAAPSVFIFPPSDEQLKSGTASVVCLLNNFYPREAKVQWKVDNALQSGNSQESVTEQDSKDSTYSLSSTLTLSKADYEKHKVYACEVTHQGLSSPVTKSFNRGEC
notes: also called Fab clone 838
B17: Fab fragment of antibody 859 (Fab)
VH: QVQLVESGGGVVQPGRSLRLSCAVSGSSFSKYGIHWVRQAPGKGLEWVAVISYDGSKKYFTDSVKGRFTIARDNSQNTVFLQMNSLRAEDTAVYYCATGGGVNVTSWSDVEHSSSLGYWGLGTLVTVSS
light: B16 light with S20T, S30R, I48V, Y49F, K90R, Q96L, Q100G
notes: also called Fab clone 859

The binders below were run against RSV protein F (recombinant or purified F protein) (human respiratory syncytial virus, …) (assay: SPR Biacore 3000, Fab over amine-coupled recombinant protein F).

Going from B1 to B2, the Kd rises from 0.14 nM to 0.226 nM (1.6-fold).

B3 and B4 are within 1.5-fold of each other in Kd: 0.82 nM for the first, 1.13 nM for the second.

Compared with B5, B6 is 28-fold lower in Kd: 0.195 nM for the first, 0.007 nM for the second.

Compared with B7, B8 is 1.7-fold higher in Kd: 0.115 nM for the first, 0.2 nM for the second. The first binds more tightly here.

Compared with B1, B2 is 1.8-fold higher in koff: 4.99e-05 s⁻¹ for the first, 9.18e-05 s⁻¹ for the second.

Compared with B3, B4 is 5.6-fold higher in koff: 7.54e-05 s⁻¹ for the first, 0.00042 s⁻¹ for the second.

First: B5
Second: B6
The koff of the first is 44-fold higher: 0.00015 s⁻¹ for the first, 3.4e-06 s⁻¹ for the second.

First: B7
Second: B8
The koff of the first is 16-fold lower: 2.2e-05 s⁻¹ for the first, 0.000348 s⁻¹ for the second.

B1 and B2 are within 1.5-fold of each other in kon: 356000 M⁻¹ s⁻¹ for the first, 407000 M⁻¹ s⁻¹ for the second.

Going from B3 to B4, the kon rises from 92000 M⁻¹ s⁻¹ to 372000 M⁻¹ s⁻¹ (4-fold).

Going from B5 to B6, the kon falls from 772000 M⁻¹ s⁻¹ to 497000 M⁻¹ s⁻¹ (1.6-fold).

Going from B7 to B8, the kon rises from 192000 M⁻¹ s⁻¹ to 1.74e+06 M⁻¹ s⁻¹ (9.1-fold).

Going from B1 to B2, the t1/2 falls from 230 min to 130 min (1.8-fold).

First: B3
Second: B4
The t1/2 of the first is 5.4-fold higher: 150 min for the first, 28 min for the second.

First: B5
Second: B6
The t1/2 of the first is 44-fold lower: 77 min for the first, 3400 min for the second.

Compared with B7, B8 is 16-fold lower in t1/2: 530 min for the first, 33 min for the second.

What follows are binders tested against T1, recombinant human fractalkine (CX3CL1; …) (assay: ELISA on recombinant human fractalkine).

B9: no binding.
B10: no binding.
B11: no binding.

What follows are binders tested against T2, recombinant RSV protein G, G(B): … (assay: SPR Biacore 3000, Fab over amine-coupled recombinant protein G).

First: B12
Second: B13
The Kd of the first is 2.3-fold lower: 0.34 nM for the first, 0.79 nM for the second. The first binds more tightly here.

Compared with B14, B15 is 5.3-fold lower in Kd: 0.48 nM for the first, 0.09 nM for the second. The second binds more tightly here.

Going from B16 to B17, the Kd falls from 0.19 nM to 0.12 nM (1.6-fold).

Going from B12 to B13, the koff rises from 0.000171 s⁻¹ to 0.0014 s⁻¹ (8.2-fold).

First: B14
Second: B15
The koff of the first is 2.3-fold higher: 0.000403 s⁻¹ for the first, 0.000178 s⁻¹ for the second.

B16 and B17 are within 1.5-fold of each other in koff: 5.06e-05 s⁻¹ for the first, 4.63e-05 s⁻¹ for the second.

First: B12
Second: B13
The kon of the first is 3.6-fold lower: 498000 M⁻¹ s⁻¹ for the first, 1.77e+06 M⁻¹ s⁻¹ for the second.

Going from B14 to B15, the kon rises from 833000 M⁻¹ s⁻¹ to 2.02e+06 M⁻¹ s⁻¹ (2.4-fold).

B16 and B17 are within 1.5-fold of each other in kon: 264000 M⁻¹ s⁻¹ for the first, 380000 M⁻¹ s⁻¹ for the second.

Compared with B12, B13 is 8.2-fold lower in t1/2: 68 min for the first, 8.25 min for the second.

Compared with B14, B15 is 2.3-fold higher in t1/2: 28.7 min for the first, 65 min for the second.

B16 and B17 are within 1.5-fold of each other in t1/2: 230 min for the first, 250 min for the second.
